Tests used:
[1] = target: T1, mouse TREM2 over-expressed on Expi 293 cells (mouse, UniProt Q99NH8 19-227); experiment: flow cytometry on Expi 293 cells over-expressing mouse TREM2; Alexa Fluor 647 secondary antibody
T1 construct: also called Expi-mTREM2; mTREM2
T1 sequence: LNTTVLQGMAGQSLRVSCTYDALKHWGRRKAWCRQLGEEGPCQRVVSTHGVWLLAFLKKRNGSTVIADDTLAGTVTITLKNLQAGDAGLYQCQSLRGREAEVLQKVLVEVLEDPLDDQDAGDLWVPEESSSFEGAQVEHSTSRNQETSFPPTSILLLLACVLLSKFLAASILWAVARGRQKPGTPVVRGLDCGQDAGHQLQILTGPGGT
Experimental: (§1) 100,000 to 500,000 Expi 293 parental cells or Expi 293 cells over-expressing human or mouse TREM2 were plated in […] well plates and dead cells were stained with Zombie Near Infrared (Biolegend). Titrations of indicated unconjugated antibodies were incubated with these cells within a range of 0 ug/ml to 10 ug/ml in a 1:3 dilution range across 8-10 points. Dependent on their isotype (higG1 or mIgG2a), these primary unconjugated antibodies were detected with Alexa Fluor 647 conjugated anti-human Fc or anti-mouse Fc secondary antibodies (Jackson Immunoresearch). Alexa Fluor 647 signal was measured by flow cytometry (BD Fortessa X-14, BD Biosciences). EC50 values were calculated by curve fitting signal generated from antibodies binding to over-expressing cells over background fluorescence generated from HEK293 parental cells in Graphpad Prism (Graphpad Software).

[2] = target: T2, human TREM2 over-expressed on Expi 293 cells (human, UniProt Q9NZC2 19-230); experiment: flow cytometry on Expi 293 cells over-expressing human TREM2; Alexa Fluor 647 secondary antibody
T2 construct: also called Expi-hTREM2; hTREM2
T2 sequence: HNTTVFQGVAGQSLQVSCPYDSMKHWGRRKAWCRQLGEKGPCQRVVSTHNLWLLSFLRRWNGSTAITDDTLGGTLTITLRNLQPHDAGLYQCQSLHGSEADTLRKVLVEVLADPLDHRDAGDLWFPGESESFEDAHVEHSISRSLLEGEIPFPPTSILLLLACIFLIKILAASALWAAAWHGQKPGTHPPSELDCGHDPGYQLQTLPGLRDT
Experimental: as §1

EC50 [1]: 0.9 nM
EC50 [2]: 0.6 nM
B1: Rat IgG2B Clone #237920 (R&D Systems Cat #MAB17291) (antibody, V domains shown)
VH: EVQLVESGGGLVQPGRSLKLSCAASGFTFSNYYMAWVRQAPTKGLEWVASLTNSGGSTYYRDSVKGRFTLSRDNAKSTLYLQMDSLRSEDTATYYCTREWAGSGYFDYWGQGVMVTVSS
VL: NIVMTQSPKSMSLSVGDRVTMNCKASQNVGNNLAWYQQKPGQSPKLLLYYTSNRFTGVPDRFTGGGYGTDFTLTINSVQAEDAAFYYCQRIYNSPWTFGGGTKLELKR
notes: also called mAb 237920

From US20210317211A1 (published 2021)
